# B1: CK6 S239C-PBD (antibody, V domains shown)
# VH: QVQLVQSGAAVKKPGESLKISCKGSGYRFTSYWIGWVRQMPGKGLEWMGIIYPGDSDTRYSPSFQGQVTISAGKSISTAYLQWSSLKASDTAMYYCARHGRGYNGYEGAFDIWGQGTMVTVSS
# VL: AIQLTQSPSSLSASVGDRVTITCRASQGISSALAWYQQKPGKAPKLLIYDASSLESGVPSRFSGSGSGTDFTLTISSLQPEDFATYYCQQFNSYPLTFGGGTKVEIK
# modifications: PBD (DNA cross linker) conjugated to the antibody, Fc modification S239C, DAR 1.7
# B2: CK6 S239C-D4 (calicheamicin) (antibody, V domains shown)
# VH: B1 VH
# VL: B1 VL
# modifications: calicheamicin (D4) conjugated to the antibody, Fc modification S239C, DAR 1.72
# B3: CK6-SET0207 (Fc modification D265C H435A) (antibody, V domains shown)
# VH: B1 VH
# VL: B1 VL
# modifications: SET0207 payload ('Non-cleavable natural') conjugated to the antibody, Fc modification D265C H435A, DAR 2.0
# B4: CK6 S239C-PNU (antibody, V domains shown)
# VH: B1 VH
# VL: B1 VL
# modifications: PNU (DNA topoisomerase I/II inhibitor) conjugated to the antibody, Fc modification S239C, DAR 1.4
# B5: CK6 S239C-DM (duocarmycin) (antibody, V domains shown)
# VH: B1 VH
# VL: B1 VL
# modifications: duocarmycin (DM) conjugated to the antibody, Fc modification S239C, DAR 1.65
# Target: Baboon CD117 on baboon CD34+ bone marrow cells (baboon)
# Assay: cell-based or functional assay
row,Binder,"IC50, killing of baboon CD34+ bone marrow cells (live cell counts by flow cytometry) [nM]"
1,B1,0.00066
2,B2,14.6

# Target: T1, Human CD117 on Kasumi-1 cells or primary human CD34+ bone marrow cells (human, UniProt P10721 26-976)
# Assay: cell-based or functional assay
# T1 sequence (P10721 26-976 limits assumed): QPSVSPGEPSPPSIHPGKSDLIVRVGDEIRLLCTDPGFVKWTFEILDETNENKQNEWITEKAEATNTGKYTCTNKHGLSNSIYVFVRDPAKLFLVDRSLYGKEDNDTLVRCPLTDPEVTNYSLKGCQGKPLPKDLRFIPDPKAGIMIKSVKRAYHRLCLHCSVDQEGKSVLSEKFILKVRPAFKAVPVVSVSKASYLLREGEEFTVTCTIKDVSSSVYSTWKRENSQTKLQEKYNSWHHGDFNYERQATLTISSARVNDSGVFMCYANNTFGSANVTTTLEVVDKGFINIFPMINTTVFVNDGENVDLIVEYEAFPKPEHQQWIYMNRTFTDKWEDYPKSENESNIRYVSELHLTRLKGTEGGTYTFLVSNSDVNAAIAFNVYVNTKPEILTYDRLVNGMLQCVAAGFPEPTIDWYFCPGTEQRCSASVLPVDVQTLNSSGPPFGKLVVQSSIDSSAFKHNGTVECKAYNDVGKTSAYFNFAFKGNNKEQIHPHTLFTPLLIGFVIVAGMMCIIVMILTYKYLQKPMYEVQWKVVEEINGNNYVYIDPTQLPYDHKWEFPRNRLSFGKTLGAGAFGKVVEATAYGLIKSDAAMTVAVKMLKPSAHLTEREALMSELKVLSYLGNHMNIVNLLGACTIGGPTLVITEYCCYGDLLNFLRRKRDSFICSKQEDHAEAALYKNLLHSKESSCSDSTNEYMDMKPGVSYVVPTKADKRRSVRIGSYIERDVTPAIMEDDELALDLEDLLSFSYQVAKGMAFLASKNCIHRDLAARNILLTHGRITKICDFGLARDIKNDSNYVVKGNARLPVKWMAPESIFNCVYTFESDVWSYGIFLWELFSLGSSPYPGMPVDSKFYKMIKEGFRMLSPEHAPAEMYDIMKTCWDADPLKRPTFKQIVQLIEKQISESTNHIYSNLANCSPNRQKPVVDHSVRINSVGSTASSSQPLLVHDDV
row,Binder,"% Efficacy, in vitro hCD34 cell killing assay [%]"
1,B1,97.3
2,B3,9.18
3,B4,74.4
4,B5,66.2
5,B2,52.3

# Target: T1, Human CD117 on Kasumi-1 cells or …
# Assay: cell-based or functional assay
# Remark: another data set of the same source
row,Binder,"% Efficacy, in vitro Kasumi cell killing assay [%]"
1,B1,60.7
2,B3,0
3,B4,85.7
4,B5,0
5,B2,0
